The target in data set [1] is (GPP)7 acceptor peptide.
In data set [2] the target is T1, His10-tagged human collagen III construct, P02461.
T1 chain: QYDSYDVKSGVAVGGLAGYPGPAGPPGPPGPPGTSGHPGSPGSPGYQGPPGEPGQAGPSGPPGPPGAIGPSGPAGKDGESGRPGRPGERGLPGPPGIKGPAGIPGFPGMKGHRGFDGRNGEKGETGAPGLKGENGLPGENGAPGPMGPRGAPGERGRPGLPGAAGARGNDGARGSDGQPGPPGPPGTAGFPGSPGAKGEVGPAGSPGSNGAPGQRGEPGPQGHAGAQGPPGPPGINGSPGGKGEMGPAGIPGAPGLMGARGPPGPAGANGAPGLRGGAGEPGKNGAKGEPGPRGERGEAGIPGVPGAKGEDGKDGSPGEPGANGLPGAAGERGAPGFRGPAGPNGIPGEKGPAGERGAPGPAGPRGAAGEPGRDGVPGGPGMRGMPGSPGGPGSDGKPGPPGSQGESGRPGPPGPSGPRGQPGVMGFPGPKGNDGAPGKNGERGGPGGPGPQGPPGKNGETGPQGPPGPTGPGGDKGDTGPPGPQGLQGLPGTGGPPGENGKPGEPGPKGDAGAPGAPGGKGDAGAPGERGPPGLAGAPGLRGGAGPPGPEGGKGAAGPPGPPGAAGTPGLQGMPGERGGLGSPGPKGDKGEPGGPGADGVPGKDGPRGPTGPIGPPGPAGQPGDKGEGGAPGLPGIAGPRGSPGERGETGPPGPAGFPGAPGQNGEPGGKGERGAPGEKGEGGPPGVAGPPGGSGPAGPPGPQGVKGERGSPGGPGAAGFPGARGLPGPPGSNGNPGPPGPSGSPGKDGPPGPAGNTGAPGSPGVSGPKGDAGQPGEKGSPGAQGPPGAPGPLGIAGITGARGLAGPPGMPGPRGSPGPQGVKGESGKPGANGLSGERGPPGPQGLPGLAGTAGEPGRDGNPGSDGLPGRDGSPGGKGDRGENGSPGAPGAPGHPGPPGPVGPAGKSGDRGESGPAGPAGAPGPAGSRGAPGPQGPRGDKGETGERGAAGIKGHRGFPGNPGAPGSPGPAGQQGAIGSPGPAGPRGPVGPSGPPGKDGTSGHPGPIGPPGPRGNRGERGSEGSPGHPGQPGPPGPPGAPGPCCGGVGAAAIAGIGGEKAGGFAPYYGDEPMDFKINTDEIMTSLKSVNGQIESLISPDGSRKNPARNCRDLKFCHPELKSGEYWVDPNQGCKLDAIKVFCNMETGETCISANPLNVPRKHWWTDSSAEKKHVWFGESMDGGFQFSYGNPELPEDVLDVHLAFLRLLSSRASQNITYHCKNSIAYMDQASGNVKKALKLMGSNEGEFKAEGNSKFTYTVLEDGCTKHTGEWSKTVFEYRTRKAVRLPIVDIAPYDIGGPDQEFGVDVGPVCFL

Data set [3] concerns the target T2, (GDK)4 acceptor peptide.
T2 chain: GDKGDKGDKGDK

For data set [4], the target named is T3, MimiD peptide GTKGETGLKGII
T3 chain: GTKGETGLKGII

B1: Mimivirus prolyl hydroxylase L593_long (protein)
chain: MKTVTIITIIVVIIVVILIIMVLSKSCVSHFRNVGSLNSRDVNLKDDFSYANIDDPYNKPFVLNNLINPTKCQEIMQFANGKLFDSQVLSGTDKNIRNSQQMWISKNNPMVKPIFENICRQFNVPFDNAEDLQVVRYLPNQYYNEHHDSCCDSSKQCSEFIERGGQRILTVLIYLNNEFSDGHTYFPNLNQKFKPKTGDALVFYPLANNSNKCHPYSLHAGMPVTSGEKWIANLWFRERKFS
With B1, the “prolyl hydroxylase activity ([14C]-CO2 production from [14C]-2-oxoglutarate)” value in data set [1] is “Both short and long forms of L593 are active as prolyl hydroxylases, but the short form has a higher specific activity than the long form”.

B2: Mimivirus lysyl hydroxylase L230 (protein)
chain: MISRTYVINLARRPDKKDRILAEFLKLKEKGVELNCVIFEAVDGNNPEHLSRFNFKIPNWTDLNSGKPMTNGEVGCALSHWSVWKDVVDCVENGTLDKDCRILVLEDDVVFLDNFMERYQTYTSEITYNCDLLYLHRKPLNPYTETKISTHIVKPNKSYWACAYVITYQCAKKFMNANYLENLIPSDEFIPIMHGCNVYGFEKLFSNCEKIDCYAVQPSLVKLTSNAFNDSETFHSGSYVPSNKFNFDTDKQFRIVYIGPTKGNSFHRFTEYCKLYLLPYKVIDEKETNDFVSLRSELQSLSEQDLNTTLMLVVSVNHNDFCNTIPCAPTNEFIDKYKQLTTDTNSIVSAVQNGTNKTMFIGWANKISEFINHYHQKLTESNAETDINLANLLLISSISSDFNCVVEDVEGNLFQLINEESDIVFSTTTSRVNNKLGKTPSVLYANSDSSVIVLNKVENYTGYGWNEYYGYHVYPVKFDVLPKIYLSIRIVKNANVTKIAETLDYPKELITVSISRSEHDSFYQADIQKFLLSGADYYFYISGDCIITRPTILKELLELNKDFVGPLMRKGTESWTNYWGDIDPSNGYYKRSFDYFDIIGRDRVGCWNVPYLASVYLIKKSVIEQVPNLFTENSHMWNGSNIDMRLCHNLRKNNVFMYLSNLRPYGHIDDSINLEVLSGVPTEVTLYDLPTRKEEWEKKYLHPEFLSHLQNFKDFDYTEICNDVYSFPLFTPAFCKEVIEVMDKANLWSKGGDSYFDPRIGGVESYPTQDTQLYEVGLDKQWHYVVFNYVAPFVRHLYNNYKTKDINLAFVVKYDMERQSELAPHHDSSTYTLNIALNEYGKEYTAGGCEFIRHKFIWQGQKVGYATIHAGKLLAYHRALPITSGKRYILVSFVN
On to B2, for which, in data set [2], the “hydroxylysine in collagen III after co-expression in E. coli (amino acid analysis by HPLC)” value is listed as “A peak corresponding to hydroxylysine was detected in collagen III co-expressed with L230 but not in collagen expressed alone in E. coli”. The lysyl hydroxylase activity result in data set [3] was “The lysyl hydroxylase activity was highest towards the (GDK)4 peptide and the GTKGETGLKGII peptide derived from a Mimivirus collagen sequence”; in data set [4] it was “The lysyl hydroxylase activity was highest towards the (GDK)4 peptide and the GTKGETGLKGII peptide derived from a Mimivirus collagen sequence”.

B3: Mimivirus prolyl hydroxylase L593_short (protein)
chain: MVLSKSCVSHFRNVGSLNSRDVNLKDDFSYANIDDPYNKPFVLNNLINPTKCQEIMQFANGKLFDSQVLSGTDKNIRNSQQMWISKNNPMVKPIFENICRQFNVPFDNAEDLQVVRYLPNQYYNEHHDSCCDSSKQCSEFIERGGQRILTVLIYLNNEFSDGHTYFPNLNQKFKPKTGDALVFYPLANNSNKCHPYSLHAGMPVTSGEKWIANLWFRERKFS
Consider B3, for which, in data set [2], the “hydroxyproline in collagen III after co-expression in E. coli (amino acid analysis by HPLC, tandem mass spectrometry of tryptic peptides)” value is on record as “the amino acid hydroxyproline was clearly detected in the human collagen III extract when the Mimivirus L593 protein was co-expressed”. Also, the “prolyl hydroxylase activity ([14C]-CO2 production from [14C]-2-oxoglutarate)” value in data set [1] is listed as “the short form of L593 yielded prolyl hydroxylase activity in the range of 600 pmol/min/mg protein”.

Values taken from patent US20140073575.
